Experimental data: PMC4430201 (Nature, 2014)

Molecular target: the molecule itself
Test: crystal structure

B1: lantibiotic dehydratase NisB (enzyme, Lactococcus lactis)
chain: MIKSSFKAQPFLVRNTILCPNDKRSFTEYTQVIETVSKNKVFLEQLLLANPKLYDVMQKYNAGLLKKKRVKKLFESIYKYYKRSYLRSTPFGLFSETSIGVFSKSSQYKLMGKTTKGIRLDTQWLIRLVHKMEVDFSKKLSFTRNNANYKFGDRVFQVYTINSSELEEVNIKYTNVYQIISEFCENDYQKYEDICETVTLCYGDEYRELSEQYLGSLIVNHYLISNLQKDLLSDFSWNTFLTKVEAIDEDKKYIIPLKKVQKFIQEYSEIEIGEGIEKLKEIYQEMSQILENDNYIQIDLISDSEINFDVKQKQQLEHLAEFLGNTTKSVRRTYLDDYKDKFIEKYGVDQEVQITELFDSTFGIGAPYNYNHPRNDFYESEPSTLYYSEEEREKYLSMYVEAVKNHNVINLDDLESHYQKMDLEKKSELQGLELFLNLAKEYEKDIFILGDIVGNNNLGGASGRFSALSPELTSYHRTIVDSVERENENKEITSCEIVFLPENIRHANVMHTSIMRRKVLPFFTSTSHNEVLLTNIYIGIDEKEKFYARDISTQEVLKFYITSMYNKTLFSNELRFLYEISLDDKFGNLPWELIYRDFDYIPRLVFDEIVISPAKWKIWGRDVNSKMTIRELIQSKEIPKEFYIVNGDNKVYLSQKNPLDMEILESAIKKSSKRKDFIELQEYFEDENIINKGEKGRVADVVVPFIRTRALGNEGRAFIREKRVSVERREKLPFNEWLYLKLYISINRQNEFLLSYLPDIQKIVANLGGNLFFLRYTDPKPHIRLRIKCSDLFLAYGSILEILKRSRKNRIMSTFDISIYDQEVERYGGFDTLELSEAIFCADSKIIPNLLTLIKDTNNDWKVDDVSILVNYLYLKCFFQNDNKKILNFLNLVSTKKVKENVNEKIEHYLKLLKVNNLGDQIFYDKNFKELKHAIKNLFLKMIAQDFELQKVYSIIDSIIHVHNNRLIGIERDKEKLIYYTLQRLFVSEEYMK
modifications: methylated prior to crystallization (residues not stated)
  stoichiometry N: 2
